# According to the supplement of paper PMC10724198:
# ± gives the standard deviation of the averaged measurements.
# System: Saccharomyces cerevisiae
# Test: protein stability index of tFT-peptide fusion (C-terminal peptide) (PSI (0-1 scale)); higher = more stable (slower turnover)
# Details: genetic background: cdc34-1; temperature: 37 C
# Description: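 MPS profiling in S. cerevisiae of the tFT-X12 degron library: putative degron peptides plus stable controls, 12 aa, fused to the C-terminus of a sfGFP-mCherry timer. Cells are FACS-sorted into 8 mCherry/sfGFP bins and deep-sequenced. PSI runs from 0 (unstable) to 1 (stable). Backgrounds are wild type, das1Δ and doa10Δ at 30 °C, and wild type, das1Δ, cdc34-1 and cdc53-1 at 37 °C; 2-3 technical replicates each.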
# 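Further: PSI is a weighted mean of sequencing reads over stability bins, variants kept only with over 10 reads, mCherry proximal and sfGFP distal, peptide attached via GGGS linker.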
row,Sequence,protein stability index
1,ACCLLFSFAFTV,0.452 ± 0.026
2,AFFALGSFFFLL,0.631 ± 0.042
3,AFRCVVLCWFLK,0.31 ± 0.031
4,AFVSVHRLRLAS,0.642 ± 0.016
5,AGLAPCFLLFVC,0.261 ± 0.027
6,AGMIKLRKKKVL,0.6487 ± 0.003
7,AGSPPSRPPWLP,0.675 ± 0.047
8,AGVRLIFLFWGF,0.521 ± 0.05
9,AHSFKCVGVAVR,0.4628 ± 0.00085
10,AIREVQYSFFPS,0.681 ± 0.041
11,ALERCFIRRVTV,0.513 ± 0.013
12,ALVYVPACRLVV,0.59 ± 0.049
13,APCRVPVLGLVF,0.249 ± 0.026
14,APLPPVCPSPSL,0.667 ± 0.081
15,ARRRYEVLAVLV,0.477 ± 0.024
16,ASTGPLAAIRVY,0.519 ± 0.0057
17,AVCVGILIWATV,0.0816 ± 0.0045
18,AVLVSGMVVWLV,0.643 ± 0.053
19,AVSFTLVLCSCF,0.474 ± 0.025
20,AVVLLFIPRKLL,0.472 ± 0.042
21,AVWVAVEVEAGR,0.468 ± 0.045
22,AVYEGLLIRCLI,0.4982 ± 0.0037
23,AYFLKRSSILVR,0.311 ± 0.05
24,CAIHIKIQMSVE,0.0158 ± 0.0046
25,CALCIGTYIRVV,0.495 ± 0.01
26,CCLFFLVVFVGW,0.167 ± 0.0038
27,CCNVLFRVCLFL,0.459 ± 0.0095

row,Sequence,protein stability index
1,CFGVVVLGLSLD,0.442 ± 0.0052
2,CFLPFFIIFIFV,0.214 ± 0.006
3,CFVFIGVGVLLG,0.205 ± 0.0083
4,CIEIDHVIVAIC,0.464 ± 0.019
5,CKFLYMALLFFW,0.278 ± 0.0085
6,CLFLVFCFCVCS,0.59488 ± 0.00049
7,CLGFWVCCYCLV,0.537 ± 0.037
8,CLHWFMVLFRVL,0.139 ± 0.051
9,CLLLVISSLCSG,0.416 ± 0.047
10,CLVLCLSIPSPL,0.607 ± 0.027
11,CLVWLVRIIVLD,0.199 ± 0.019
12,CPFFFFSLIFLF,0.16 ± 0.058
13,CRLFPFPLLAQL,0.646 ± 0.034
14,CSAARKDGLAPL,0.697 ± 0.038
15,CSLPVLFLPYYL,0.581 ± 0.025
16,CSPVNGSAVWSI,0.688 ± 0.032
17,CSSFFLLLFFLF,0.351 ± 0.051
18,CSWMRSRMWVGG,0.33 ± 0.051
19,CTWGRYGGIWLR,0.0548 ± 0.007
20,CVFCLTVFVRFL,0.197 ± 0.0067
21,CVFVWFWCMTWV,0.171 ± 0.089
22,CVLFLGQILCVV,0.266 ± 0.018
23,CYSRRGCIYFFF,0.564 ± 0.029
24,DHSIYYGVAKVF,0.484 ± 0.017
25,DKKNCIIIYYKQ,0.479 ± 0.053
26,DLDLLTKFSKEC,0.702 ± 0.028
27,DNTVWLRLVTSC,0.32 ± 0.052

row,Sequence,protein stability index
1,DRHCLVSLSPDG,0.64 ± 0.03
2,DRLAVLVLLRVY,0.0219 ± 0.0022
3,DRRFLVMISVSL,0.33 ± 0.01
4,DRSPLPAIFVAQ,0.7 ± 0.028
5,DTAFLLVVVVGR,0.309 ± 0.0076
6,DYIFVYAVMFMR,0.14 ± 0.046
7,EFCITAFVSVLT,0.452 ± 0.029
8,EGLRVSVCAWVM,0.38 ± 0.043
9,EHIRWLLPKHCL,0.681 ± 0.027
10,EIKTEIGKKKKN,0.632 ± 0.2
11,EINRKKRKTKIN,0.704 ± 0.047
12,ERGSLPRIHHLI,0.6542 ± 0.0035
13,ERLVFKRWYLCL,0.585 ± 0.028
14,ESCVRSRRVLLC,0.564 ± 0.063
15,FCLRQPMLRFFI,0.586 ± 0.027
16,FLFVSVFHPALL,0.6421 ± 0.0042
17,GAVGGWGWVSFV,0.683 ± 0.049
18,GGCGFVWWRLLG,0.544 ± 0.023
19,GGGRGGRWGRLC,0.65 ± 0.042
20,GLLMCNPLLHSI,0.66632 ± 0.00053
21,IMWAFFMFCSFL,0.498 ± 0.067
22,LSLCFGPFFYFP,0.679 ± 0.072
23,PPPPPSARSPFR,0.649 ± 0.043
24,RVIESRWFNRLC,0.587 ± 0.033
25,TFCVLLQFCVLV,0.365 ± 0.039

# Same assay, conditions: genetic background: cdc53-1; temperature: 37 C
row,Sequence,protein stability index
1,ACCLLFSFAFTV,0.5103 ± 0.0014
2,AFFALGSFFFLL,0.685 ± 0.0071
3,AFRCVVLCWFLK,0.434 ± 0.0094
4,AFVSVHRLRLAS,0.724 ± 0.014
5,AGLAPCFLLFVC,0.343 ± 0.019
6,AGMIKLRKKKVL,0.7395 ± 0.003
7,AGSPPSRPPWLP,0.7369 ± 0.0062
8,AGVRLIFLFWGF,0.608 ± 0.027
9,AHSFKCVGVAVR,0.504 ± 0.01
10,AIREVQYSFFPS,0.755 ± 0.018
11,ALERCFIRRVTV,0.582 ± 0.024
12,ALVYVPACRLVV,0.624 ± 0.022
13,APCRVPVLGLVF,0.265 ± 0.0055
14,APLPPVCPSPSL,0.72 ± 0.015
15,ARRRYEVLAVLV,0.522 ± 0.025
16,ASTGPLAAIRVY,0.622 ± 0.023
17,AVCVGILIWATV,0.0998 ± 0.009
18,AVLVSGMVVWLV,0.709 ± 0.015
19,AVSFTLVLCSCF,0.489 ± 0.029
20,AVVLLFIPRKLL,0.53 ± 0.034
21,AVWVAVEVEAGR,0.498 ± 0.025
22,AVYEGLLIRCLI,0.5271 ± 0.0033
23,AYFLKRSSILVR,0.376 ± 0.015
24,CAIHIKIQMSVE,0.0731 ± 0.0079
25,CALCIGTYIRVV,0.503 ± 0.014
26,CCLFFLVVFVGW,0.227 ± 0.027

row,Sequence,protein stability index
1,CCNVLFRVCLFL,0.526 ± 0.059
2,CFGVVVLGLSLD,0.503 ± 0.031
3,CFLPFFIIFIFV,0.177 ± 0.019
4,CFVFIGVGVLLG,0.387 ± 0.025
5,CIEIDHVIVAIC,0.527 ± 0.062
6,CKFLYMALLFFW,0.364 ± 0.0087
7,CLFLVFCFCVCS,0.62042 ± 0.00025
8,CLGFWVCCYCLV,0.589 ± 0.044
9,CLHWFMVLFRVL,0.12 ± 0.018
10,CLLLVISSLCSG,0.462 ± 0.073
11,CLVLCLSIPSPL,0.6246 ± 0.00068
12,CLVWLVRIIVLD,0.268 ± 0.026
13,CPFFFFSLIFLF,0.214 ± 0.044
14,CRLFPFPLLAQL,0.7407 ± 0.003
15,CSAARKDGLAPL,0.722 ± 0.02
16,CSLPVLFLPYYL,0.5788 ± 0.0043
17,CSPVNGSAVWSI,0.736 ± 0.016
18,CSSFFLLLFFLF,0.448 ± 0.018
19,CSWMRSRMWVGG,0.419 ± 0.03
20,CTWGRYGGIWLR,0.0483 ± 0.033
21,CVFCLTVFVRFL,0.26 ± 0.018
22,CVFVWFWCMTWV,0.164 ± 0.016
23,CVLFLGQILCVV,0.328 ± 0.01
24,CYSRRGCIYFFF,0.693 ± 0.009
25,DHSIYYGVAKVF,0.652 ± 0.012
26,DKKNCIIIYYKQ,0.706 ± 0.074

row,Sequence,protein stability index
1,DLDLLTKFSKEC,0.77 ± 0.013
2,DNTVWLRLVTSC,0.506 ± 0.011
3,DRHCLVSLSPDG,0.665 ± 0.03
4,DRLAVLVLLRVY,0.0458 ± 0.013
5,DRRFLVMISVSL,0.357 ± 0.016
6,DRSPLPAIFVAQ,0.746 ± 0.021
7,DTAFLLVVVVGR,0.358 ± 0.036
8,DYIFVYAVMFMR,0.292 ± 0.046
9,EFCITAFVSVLT,0.431 ± 0.017
10,EGLRVSVCAWVM,0.467 ± 0.0075
11,EHIRWLLPKHCL,0.73 ± 0.026
12,EIKTEIGKKKKN,0.671 ± 0.022
13,EINRKKRKTKIN,0.7155 ± 0.0039
14,ERGSLPRIHHLI,0.754 ± 0.017
15,ERLVFKRWYLCL,0.605 ± 0.062
16,ESCVRSRRVLLC,0.71 ± 0.032
17,FCLRQPMLRFFI,0.595 ± 0.012
18,FLFVSVFHPALL,0.70858 ± 0.0003
19,GAVGGWGWVSFV,0.7583 ± 0.0075
20,GGCGFVWWRLLG,0.6932 ± 0.0055
21,GGGRGGRWGRLC,0.743 ± 0.016
22,GLLMCNPLLHSI,0.734 ± 0.0075
23,IMWAFFMFCSFL,0.53764 ± 0.00031
24,LSLCFGPFFYFP,0.7329 ± 0.0056
